Source: paper PMC7954794, “Protein context shapes the specificity of SH3 domain-mediated interactions in vivo” (Nature Communications, 2021)

Test system: growth of yeast strains under 51 stress conditions
Assay: Growth assays in 51 stress conditions (Fig. 1E-F, S2D, S5B)
Assay type: cell-based, Saccharomyces cerevisiae
Set-up: key to Growth (Fig. S2D) / growth of ABP1 SH3-swapped strains in stress condition: log2 colony size, average of median per strain (growth score)
Conditions: ABP1 SH3-swapped strains
How it was run: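 Colony sizes at 74 h on 51 stress media (37 °C) were log2 transformed, corrected for plate effects, and averaged across two plates as per-plate medians (growth score). Strains arrayed in 12 replicates with WT border, grown first on YPD for two days at 30 °C.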

B1: MYO3 (protein, UniProt P36006 1-1272, looked up)
Myosin-3: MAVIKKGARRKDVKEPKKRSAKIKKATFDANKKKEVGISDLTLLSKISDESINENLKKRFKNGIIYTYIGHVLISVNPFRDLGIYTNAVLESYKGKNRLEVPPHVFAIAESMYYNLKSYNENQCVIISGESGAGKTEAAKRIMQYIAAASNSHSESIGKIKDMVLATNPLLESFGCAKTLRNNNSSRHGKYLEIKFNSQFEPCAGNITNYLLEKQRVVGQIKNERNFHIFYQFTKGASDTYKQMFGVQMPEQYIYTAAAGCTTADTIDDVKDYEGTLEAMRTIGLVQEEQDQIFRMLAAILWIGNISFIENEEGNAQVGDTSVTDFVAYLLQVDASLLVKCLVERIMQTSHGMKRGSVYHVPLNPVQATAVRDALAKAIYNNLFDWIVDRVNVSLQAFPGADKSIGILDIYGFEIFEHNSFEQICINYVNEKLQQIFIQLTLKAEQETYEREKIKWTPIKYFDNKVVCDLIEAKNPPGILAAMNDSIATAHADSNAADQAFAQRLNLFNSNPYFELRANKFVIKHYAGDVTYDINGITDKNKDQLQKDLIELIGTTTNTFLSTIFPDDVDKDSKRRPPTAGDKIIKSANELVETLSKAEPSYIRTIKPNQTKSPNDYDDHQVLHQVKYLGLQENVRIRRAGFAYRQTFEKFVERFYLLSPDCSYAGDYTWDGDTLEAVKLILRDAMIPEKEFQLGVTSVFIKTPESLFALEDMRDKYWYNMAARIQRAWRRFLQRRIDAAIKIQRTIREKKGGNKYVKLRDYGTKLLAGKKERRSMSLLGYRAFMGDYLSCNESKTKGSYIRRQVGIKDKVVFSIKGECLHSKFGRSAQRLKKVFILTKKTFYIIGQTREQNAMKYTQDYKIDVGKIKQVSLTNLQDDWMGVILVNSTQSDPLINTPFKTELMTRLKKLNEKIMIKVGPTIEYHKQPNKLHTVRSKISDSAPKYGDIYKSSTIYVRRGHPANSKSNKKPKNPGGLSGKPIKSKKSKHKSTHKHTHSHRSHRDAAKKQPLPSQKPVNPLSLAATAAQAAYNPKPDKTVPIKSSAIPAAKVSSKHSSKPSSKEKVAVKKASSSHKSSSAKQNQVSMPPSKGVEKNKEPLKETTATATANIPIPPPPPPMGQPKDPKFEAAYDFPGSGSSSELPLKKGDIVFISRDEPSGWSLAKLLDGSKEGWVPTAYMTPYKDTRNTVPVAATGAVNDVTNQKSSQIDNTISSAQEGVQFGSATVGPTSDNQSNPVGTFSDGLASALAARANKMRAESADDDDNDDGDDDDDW
- Growth (Fig. S2D) (Bathophenanthroline.0.1uM): 10.752
- Growth (Fig. S2D) (Bathophenanthroline.10uM): 10.5714
- Growth (Fig. S2D) (Bathophenanthroline.1uM): 10.7108
- Growth (Fig. S2D) (CaCl2.250mM): 10.7527
- Growth (Fig. S2D) (CaCl2.500mM): 10.1691
- Growth (Fig. S2D) (Caffein.10mM): 9.976
- Growth (Fig. S2D) (Caffein.2mM): 10.8692
- Growth (Fig. S2D) (CdCl2.100uM): 9.202
- Growth (Fig. S2D) (CdCl2.10uM): 10.8049
- Growth (Fig. S2D) (CdCl2.50uM): 9.536
- Growth (Fig. S2D) (CuSO4.1mM): 10.0301
- Growth (Fig. S2D) (CuSO4.5mM): 7.358
- Growth (Fig. S2D) (Cycloheximide.0.05.uM): 11.0001
- Growth (Fig. S2D) (Cycloheximide.0.2.uM): 10.4991
- Growth (Fig. S2D) (Cycloheximide.0.5.uM): 9.9209
- Growth (Fig. S2D) (DMSO.2.): 10.998
- Growth (Fig. S2D) (DMSO.6.): 9.853
- Growth (Fig. S2D) (DMSO.8.): 9.243
- Growth (Fig. S2D) (Ethanol.2.): 10.6338
- Growth (Fig. S2D) (Ethanol.6.): 10.0843
- Growth (Fig. S2D) (Ethanol.8.): 9.865
- Growth (Fig. S2D) (Galactose.2.): 10.6373
- Growth (Fig. S2D) (Glycerol.2.): 8.89
- Growth (Fig. S2D) (Hydroxyurea.25mM): 10.6592
- Growth (Fig. S2D) (Hygromycin.190uM): 10.9229
- Growth (Fig. S2D) (Hygromycin.19uM): 10.8956
- Growth (Fig. S2D) (Hygromycin.95uM): 10.9112
- Growth (Fig. S2D) (MMS.0.004.): 10.8802
- Growth (Fig. S2D) (MMS.0.02.): 10.4477
- Growth (Fig. S2D) (MMS.0.04.): 9.333
- Growth (Fig. S2D) (Menadione.100uM): 10.5316
- Growth (Fig. S2D) (Menadione.200uM): 10.3415
- Growth (Fig. S2D) (Menadione.50uM): 10.7191
- Growth (Fig. S2D) (NaCl.0.25M): 10.6458
- Growth (Fig. S2D) (NaCl.1M): 9.0624
- Growth (Fig. S2D) (Nitroquinoline.10uM): 10.5815
- Growth (Fig. S2D) (Nitroquinoline.50uM): 10.5108
- Growth (Fig. S2D) (Nystatin.0.01uM): 10.9576
- Growth (Fig. S2D) (Nystatin.0.1uM): 10.9795
- Growth (Fig. S2D) (Raffinose.2.): 10.915
- Growth (Fig. S2D) (Rapamycin.10nM): 9.682
- Growth (Fig. S2D) (Rapamycin.50nM): 9.448
- Growth (Fig. S2D) (SC.pH3): 10.2912
- Growth (Fig. S2D) (SC.pH6): 10.9261
- Growth (Fig. S2D) (SDS.0.01.): 10.9246
- Growth (Fig. S2D) (SDS.0.02.): 10.9437
- Growth (Fig. S2D) (SDS.0.05.): 10.7731
- Growth (Fig. S2D) (Sorbitol.10mM): 10.9112
- Growth (Fig. S2D) (Sorbitol.1mM): 11.0073
- Growth (Fig. S2D) (Sorbitol.5mM): 10.8833
